Target: Thermococcus kodakarensis RNA polymerase (Thermococcus kodakarensis)

B1: Spt4-Spt5 complex (complex)
chain 1: MAKERACRHCHYITTEDRCPVCGSRDLSDDWFDLVIVLDVESRIAKKLRESIPEAAKVPGKYAIRVR
chain 2: MAEGKIFTVSVTVGQETTTANLIYSKAKTYNLPLYAILSPSKVKGYIFIEAPNKSAVEEAIRGIRHAKRVLPGEIPFSEIEHFLEEKPAVSGFEPGDIVELIAGPFKGEKAKVVRVDESKDEIVVELVSSVVPIPVTVRGEYVRLISKRQKE
An elongation rate on histone-bound (HTkB) templates, against no factor of 1.5 fold was found for B1 in this work.
